Measured values as given in PMC11374688, “Structural basis for transthiolation intermediates in the ubiquitin pathway” (Nature, 2024).

Molecular target: T1, Schizosaccharomyces pombe Uba1 (lacking the first 12 amino acids) (S. pombe, UniProt O94609 13-1012, active site cysteine thiol linked to the dithioacetal carbon of the Ub(T) Gly76 surrogate)
T1 construct: Full-length Uba1 was used in the transthiolation assays; this molecule also stands for it in the functional rows; also called E1; source: E. coli BL21 (DE3) codon plus, purified (Ni-NTA, Ulp1, SEC, MonoQ)
T1 sequence (looked up): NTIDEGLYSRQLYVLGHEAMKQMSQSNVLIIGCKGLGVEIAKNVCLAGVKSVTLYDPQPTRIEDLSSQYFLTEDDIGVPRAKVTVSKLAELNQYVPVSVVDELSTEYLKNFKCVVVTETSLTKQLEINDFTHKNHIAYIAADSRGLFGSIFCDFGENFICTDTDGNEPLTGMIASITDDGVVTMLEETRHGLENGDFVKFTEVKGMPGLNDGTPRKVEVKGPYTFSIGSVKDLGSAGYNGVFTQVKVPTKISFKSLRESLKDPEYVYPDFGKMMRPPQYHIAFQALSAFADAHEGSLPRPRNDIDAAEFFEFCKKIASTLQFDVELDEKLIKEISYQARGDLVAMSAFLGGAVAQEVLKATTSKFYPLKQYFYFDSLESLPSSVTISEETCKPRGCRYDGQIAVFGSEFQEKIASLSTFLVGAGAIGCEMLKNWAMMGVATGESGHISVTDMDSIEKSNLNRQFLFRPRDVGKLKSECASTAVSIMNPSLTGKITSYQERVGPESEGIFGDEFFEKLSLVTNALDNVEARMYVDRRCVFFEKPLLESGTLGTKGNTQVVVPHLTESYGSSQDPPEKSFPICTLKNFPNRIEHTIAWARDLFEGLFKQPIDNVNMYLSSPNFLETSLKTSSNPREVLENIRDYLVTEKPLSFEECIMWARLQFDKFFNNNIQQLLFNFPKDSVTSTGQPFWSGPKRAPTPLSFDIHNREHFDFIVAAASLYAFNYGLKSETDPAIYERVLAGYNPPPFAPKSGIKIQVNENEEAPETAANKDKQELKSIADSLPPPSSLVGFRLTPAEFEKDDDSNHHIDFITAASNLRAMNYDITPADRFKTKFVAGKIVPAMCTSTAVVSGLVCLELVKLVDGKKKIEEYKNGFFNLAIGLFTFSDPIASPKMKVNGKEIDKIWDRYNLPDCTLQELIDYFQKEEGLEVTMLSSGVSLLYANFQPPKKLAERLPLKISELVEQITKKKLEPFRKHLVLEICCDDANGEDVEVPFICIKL
Test: cryo-EM structure; E1–Ub(T)–E2 (Ub(T) Gly76 surrogate covalently linked to the E1 and E2 active site cysteines) at 3 mg/ml in Tris-HCl pH 7.2, 100 mM NaCl, preincubated 30 min on ice with 5 mM MgCl2, 1 mM ATP and ~0.8 molar equivalents of Ub; 0.05% CHAPSO; doubly and singly loaded complexes resolved from the same sample
Conditions: both partners purified

binding result: binds
B1: S. pombe Ub without tags (natural protein)
chain: not shown
notes: In clusters 3 to 5 of the doubly loaded complex the C terminus of Ub(A) is adenylated (Ub(A)-AMP); also called Ub(A); native Ub; source: E. coli BL21 (DE3) codon plus, purified (as described previously, with additional SEC)
